Article PMC3432114

Experiments:
RAGE (Homo sapiens) = RAGE (Homo sapiens) (UniProt Q15109); conditions: cited from earlier work
[1] = target: N-methyl-D-aspartate receptor (NMDAR) of C44 murine erythroleukaemia (MEL) cell membranes (mouse (endogenous in C44 MEL cells)) (UniProt P35438)

Sequence of UniProt Q15109 (Q15109 23-404): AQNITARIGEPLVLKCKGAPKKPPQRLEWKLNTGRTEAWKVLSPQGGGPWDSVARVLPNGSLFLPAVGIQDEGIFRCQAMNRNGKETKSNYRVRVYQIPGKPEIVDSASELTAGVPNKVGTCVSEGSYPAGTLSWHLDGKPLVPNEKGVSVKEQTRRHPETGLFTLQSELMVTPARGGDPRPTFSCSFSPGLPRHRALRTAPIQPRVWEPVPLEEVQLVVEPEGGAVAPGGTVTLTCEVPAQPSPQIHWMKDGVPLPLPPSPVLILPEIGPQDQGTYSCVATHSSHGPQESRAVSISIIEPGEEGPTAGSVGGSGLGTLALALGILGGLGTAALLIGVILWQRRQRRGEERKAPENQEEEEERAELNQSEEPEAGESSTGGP
Sequence of HMGB1 (P09429 whole entry): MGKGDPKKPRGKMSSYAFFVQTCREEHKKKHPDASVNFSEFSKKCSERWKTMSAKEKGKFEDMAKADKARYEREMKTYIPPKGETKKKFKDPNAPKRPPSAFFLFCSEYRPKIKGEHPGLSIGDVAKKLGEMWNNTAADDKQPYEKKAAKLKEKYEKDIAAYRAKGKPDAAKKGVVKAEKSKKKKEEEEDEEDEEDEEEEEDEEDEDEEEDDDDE

percent of differentiated (benzidine-positive) MEL cells after 24 h with HMBA and 250 pM HMGB1 (6% with HMBA alone; the increase abolished by MK-801 and antagonized by CGS 19755) [1] [%]	Substance	Kd (RAGE (Homo sapiens)) [nM]
–	HMGB1 (from UniProt P09429)	10
12	high mobility group box 1 (HMGB1) protein, eukaryotic recombinant (from UniProt P63159 1-215) (natural protein)	–
